For data set [1], the system named is HeLa Kyoto. In words: solubility in G1/S (NP-40 vs SDS abundance) (log2 ratio); higher = more soluble. The conditions noted are these: cell cycle stage: G1/S.
For data set [2], the system named is HeLa Kyoto. The data set can be described thus: melting temperature (median over replicates), in situ; higher = more thermally stable.
Data set [3] concerns HeLa Kyoto. In words: solubility change mitosis vs G1/S (difference of NP-40 vs SDS log2 ratios) (log2 ratio difference); higher = more soluble in mitosis.
In data set [4] the test system is HeLa Kyoto. The data set can be described thus: thermal stability score vs G1/S (z-score of summed log2 fold changes over temperatures); higher = more thermally stable than in G1/S.
The mark [5] stands for this setting: cell cycle stage: early G1 (4.5 h after nocodazole release).

From the supplement of paper PMC5998384 come the findings set out here.
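Wherever melting temperature (median over replicates), in situ is given: HeLa Kyoto cells synchronized by double thymidine or nocodazole block, proteins quantified by TMT10plex mass spectrometry, three independent biological replicates.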
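Wherever solubility change mitosis vs G1/S (difference of NP-40 vs SDS log2 ratios) is given: synchronized HeLa Kyoto cells (double thymidine block for G1/S, nocodazole release for mitosis), protein amounts in NP-40 versus SDS lysates quantified by mass spectrometry, three biological replicates.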
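Wherever solubility in G1/S (NP-40 vs SDS abundance) is given: HeLa Kyoto cells arrested at G1/S by double thymidine block, proteins quantified by TMT10plex mass spectrometry in mild NP-40 versus SDS extracts, three biological replicates.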
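Wherever thermal stability score vs G1/S (z-score of summed log2 fold changes over temperatures) is given: synchronized HeLa Kyoto cells, proteins quantified by TMT10plex mass spectrometry, three biological replicates, mitosis taken 0.5 h after nocodazole release, G1/S directly after double thymidine block.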

Regarding “MAAVKEPLEFHAKRPWRPEEAVEDPDEEDEDNTSEAENGFSLEEVLRLGGTKQDYLMLATLDENEEVIDGGKKGAIDDLQQGELEAFIQNLNLAKYTKASLVEEDEPAEKENSSKKEVKIPKINNKNTAESQRTSVNKVKNKNRPEPHSDENGSTTPKVKKDKQNIFEFFERQTLLLRPGGKWYDLEYSNEYSLKPQPQDVVSKYKTLAQKLYQHEINLFKSKTNSQKGASSTWMKAIVSSGTLGDRMAAMILLIQDDAVHTLQFVETLVNLVKKKGSKQQCLMALDTFKELLITDLLPDNRKLRIFSQRPFDKLEQLSSGNKDSRDRRLILWYFEHQLKHLVAEFVQVLETLSHDTLVTTKTRALTVAHELLCNKPEEEKALLVQVVNKLGDPQNRIATKASHLLETLLCKHPNMKGVVSGEVERLLFRSNISSKAQYYAICFLNQMALSHEESELANKLITVYFCFFRTCVKKKDVESKMLSALLTGVNRAYPYSQTGDDKVREQIDTLFKVLHIVNFNTSVQALMLLFQVMNSQQTISDRYYTALYRKMLDPGLMTCSKQAMFLNLVYKSLKADIVLRRVKAFVKRLLQVTCQQMPPFICGALYLVSEILKAKPGLRSQLDDHPESDDEENFIDANDDEDMEKFTDADKETEIVKKLETEETVPETDVETKKPEVASWVHFDNLKGGKQLNKYDPFSRNPLFCGAENTSLWELKKLSVHFHPSVALFAKTILQGNYIQYSGDPLQDFTLMRFLDRFVYRNPKPHKGKENTDSVVMQPKRKHFIKDIRHLPVNSKEFLAKEESQIPVDEVFFHRYYKKVAVKEKQKRDADEESIEDVDDEEFEELIDTFEDDNCFSSGKDDMDFAGNVKKRTKGAKDNTLDEDSEGSDDELGNLDDDEVSLGSMDDEEFAEVDEDGGTFMDVLDDESESVPELEVHSKVSTKKSKRKGTDDFDFAGSFQGPRKKKRNLNDSSLFVSAEEFGHLLDENMGSKFDNIGMNAMANKDNASLKQLRWEAERDDWLHNRDAKSIIKKKKHFKKKRIKTTQKTKKQRK [CEBPZ]”, the “solubility in G1/S (log2)” value in data set [1] is -1.9. Moreover, the melting temperature in data set [2] (cell cycle stage: G1/S) came to 49.8 °C; in data set [2] (cell cycle stage: mitosis), 50.1 °C. The “solubility change mitosis (log2)” value in data set [3] amounted to 1.14. For the same sequence, the thermal stability score came to 1.59 in data set [4] (setting [5]) and 1.76 in data set [4] (cell cycle stage: mitosis).

In the case of “MAAVQMDPELAKRLFFEGATVVILNMPKGTEFGIDYNSWEVGPKFRGVKMIPPGIHFLHYSSVDKANPKEVGPRMGFFLSLHQRGLTVLRWSTLREEVDLSPAPESEVEAMRANLQELDQFLGPYPYATLKKWISLTNFISEATVEKLQPENRQICAFSDVLPVLSMKHTKDRVGQNLPRCGIECKSYQEGLARLPEMKPRAGTEIRFSELPTQMFPEGATPAEITKHSMDLSYALETVLNKQFPSSPQDVLGELQFAFVCFLLGNVYEAFEHWKRLLNLLCRSEAAMMKHHTLYINLISILYHQLGEIPADFFVDIVSQDNFLTSTLQVFFSSACSIAVDATLRKKAEKFQAHLTKKFRWDFAAEPEDCAPVVVELPEGIEMG [AAR2]”, the “solubility in G1/S (log2)” value in data set [1] came out at 0.0362. For the same sequence, the melting temperature in data set [2] (cell cycle stage: G1/S) was 50.2 °C; in data set [2] (cell cycle stage: mitosis), 50.4 °C. Further, the “solubility change mitosis (log2)” value in data set [3] is -0.266. Also, the figures for the thermal stability score in data set [4] (setting [5]) and in data set [4] (cell cycle stage: mitosis) were 0.316 and 1.07, respectively.

Regarding “MAAVSGLVRRPLREVSGLLKRRFHWTAPAALQVTVRDAINQGMDEELERDEKVFLLGEEVAQYDGAYKVSRGLWKKYGDKRIIDTPISEMGFAGIAVGAAMAGLRPICEFMTFNFSMQAIDQVINSAAKTYYMSGGLQPVPIVFRGPNGASAGVAAQHSQCFAAWYGHCPGLKVVSPWNSEDAKGLIKSAIRDNNPVVVLENELMYGVPFEFPPEAQSKDFLIPIGKAKIERQGTHITVVSHSRPVGHCLEAAAVLSKEGVECEVINMRTIRPMDMETIEASVMKTNHLVTVEGGWPQFGVGAEICARIMEGPAFNFLDAPAVRVTGADVPMPYAKILEDNSIPQVKDIIFAIKKTLNI [PDHB]”, the “solubility in G1/S (log2)” value in data set [1] worked out at 0.196. For the same sequence, the melting temperature stood at 51.7 °C in data set [2] (cell cycle stage: G1/S) and 51.4 °C in data set [2] (cell cycle stage: mitosis). Besides, the “solubility change mitosis (log2)” value in data set [3] is -0.117. Moreover, the thermal stability score in data set [4] (setting [5]) is -1.24; in data set [4] (cell cycle stage: mitosis), -2.38.

On to “MAAWGCVAALGAARGLCWRAARAAAGLQGRPARRCYAVGPAQSPPTFGFLLDIDGVLVRGHRVIPAALKAFRRLVNSQGQLRVPVVFVTNAGNILQHSKAQELSALLGCEVDADQVILSHSPMKLFSEYHEKRMLVSGQGPVMENAQGLGFRNVVTVDELRMAFPLLDMVDLERRLKTTPLPRNDFPRIEGVLLLGEPVRWETSLQLIMDVLLSNGSPGAGLATPPYPHLPVLASNMDLLWMAEAKMPRFGHGTFLLCLETIYQKVTGKELRYEGLMGKPSILTYQYAEDLIRRQAERRGWAAPIRKLYAVGDNPMSDVYGANLFHQYLQKATHDGAPELGAGGTRQQQPSASQSCISILVCTGVYNPRNPQSTEPVLGGGEPPFHGHRDLCFSPGLMEASHVVNDVNEAVQLVFRKEGWALE [CECR5]”, for which, in data set [1], the “solubility in G1/S (log2)” value amounted to 0.262. Besides, the melting temperature in data set [2] (cell cycle stage: G1/S) was 50.8 °C; in data set [2] (cell cycle stage: mitosis), 50.2 °C. Besides, the “solubility change mitosis (log2)” value in data set [3] was -0.159. Besides, the thermal stability score came to 0.291 in data set [4] (setting [5]) and 1.28 in data set [4] (cell cycle stage: mitosis).

Consider “MAAYKLVLIRHGESAWNLENRFSGWYDADLSPAGHEEAKRGGQALRDAGYEFDICFTSVQKRAIRTLWTVLDAIDQMWLPVVRTWRLNERHYGGLTGLNKAETAAKHGEAQVKIWRRSYDVPPPPMEPDHPFYSNISKDRRYADLTEDQLPSCESLKDTIARALPFWNEEIVPQIKEGKRVLIAAHGNSLRGIVKHLEGLSEEAIMELNLPTGIPIVYELDKNLKPIKPMQFLGDEETVRKAMEAVAAQGKAKK [PGAM1]”, for which, in data set [1], the “solubility in G1/S (log2)” value amounted to 0.324. The melting temperature in data set [2] (cell cycle stage: G1/S) was found to be 55.7 °C; in data set [2] (cell cycle stage: mitosis), 57.8 °C. Moreover, the “solubility change mitosis (log2)” value in data set [3] was -0.15. In addition, the values for the thermal stability score in data set [4] (setting [5]) and in data set [4] (cell cycle stage: mitosis) were -0.0829 and -2.07, respectively.

For the sequence “MACAAARSPADQDRFICIYPAYLNNKKTIAEGRRIPISKAVENPTATEIQDVCSAVGLNVFLEKNKMYSREWNRDVQYRGRVRVQLKQEDGSLCLVQFPSRKSVMLYAAEMIPKLKTRTQKTGGADQSLQQGEGSKKGKGKKKK [SRP19]”, the “solubility in G1/S (log2)” value in data set [1] is 0.299. Moreover, the melting temperature in data set [2] (cell cycle stage: G1/S) and in data set [2] (cell cycle stage: mitosis) was 50.8 °C each time. Also, the “solubility change mitosis (log2)” value in data set [3] is 0.161. The thermal stability score in data set [4] (setting [5]) was 0.816; in data set [4] (cell cycle stage: mitosis), -0.116.
